In the Human Domainome abundance scans (Beltran et al. 2025):
± gives the uncertainty stated by the source.

B1: Zinc finger homeobox protein 4, residues 2183 to 2238; numbered along this chain, Q86UP3 (parent)
chain: SSRTRFTDYQLRVLQDFFDTNAYPKDDEIEQLSTVLNLPTRVIVVWFQNARQKARK

Variants of: B1
Test: abundance fitness (aPCA) (normalised: wild type 0, dead -1); higher = more abundant; growth selection in yeast, the domain comes from the species named
Conditions: Homo sapiens

Variant	abundance fitness
SSRTRFTDYQLRVLQDFFDRNAYPKDDEIEQLSTVLNLPTRVIVVWFQNARQKARK [T20R]	0.072 ± 0.078
SSRTRFTDYQLRVLQDFFDCNAYPKDDEIEQLSTVLNLPTRVIVVWFQNARQKARK [T20C]	0.002 ± 0.12
SSRTRFTDYQLRVLQDFFDENAYPKDDEIEQLSTVLNLPTRVIVVWFQNARQKARK [T20E]	-0.22 ± 0.12
SSRTRFTDYQLRVLQDFFDQNAYPKDDEIEQLSTVLNLPTRVIVVWFQNARQKARK [T20Q]	-0.196 ± 0.13
ISRTRFTDYQLRVLQDFFDTNAYPKDDEIEQLSTVLNLPTRVIVVWFQNARQKARK [S1I]	-0.026 ± 0.34
SSRTRFTDYQLRVLQDFFDTNAYPKDDEIEQLSTVLNLPTRVIVVWFQNANQKARK [R51N]	-0.488 ± 0.34
SSRTRRTDYQLRVLQDFFDTNAYPKDDEIEQLSTVLNLPTRVIVVWFQNARQKARK [F6R]	-0.726 ± 0.099
SSRTRFTQYQLRVLQDFFDTNAYPKDDEIEQLSTVLNLPTRVIVVWFQNARQKARK [D8Q]	0.103 ± 0.12
SSRTRFTNYQLRVLQDFFDTNAYPKDDEIEQLSTVLNLPTRVIVVWFQNARQKARK [D8N]	-0.351 ± 0.12
SSRTRFTDYQLRVLQDFFDTWAYPKDDEIEQLSTVLNLPTRVIVVWFQNARQKARK [N21W]	-0.556 ± 0.13
SSRTRFTDYQLRVLQDFFDTNAYPKDDEIEQLSTVLNLPTRVIRVWFQNARQKARK [V44R]	-0.099 ± 0.081
SSRTRFTDYQLRVLQDFFDTNAYPKDDEIEQLSTVLNLPTRVIHVWFQNARQKARK [V44H]	-0.027 ± 0.078
SWRTRFTDYQLRVLQDFFDTNAYPKDDEIEQLSTVLNLPTRVIVVWFQNARQKARK [S2W]	-0.477 ± 0.17
SPRTRFTDYQLRVLQDFFDTNAYPKDDEIEQLSTVLNLPTRVIVVWFQNARQKARK [S2P]	-0.012 ± 0.12
SSRTRFTDAQLRVLQDFFDTNAYPKDDEIEQLSTVLNLPTRVIVVWFQNARQKARK [Y9A]	0.167 ± 0.086
SSRTRFTDYQLRVLQDFFDTNAYPKDDEIEQLSHVLNLPTRVIVVWFQNARQKARK [T34H]	0.049 ± 0.14
SSRTRFTDYQLRVLQDFFDTNAYPKDDEIEQLSTVLNLPTRVIVVWFGNARQKARK [Q48G]	-0.177 ± 0.1
SSRTRFTDYQLRVLQDFFDTNAYPKDDEIEQLSTVLNLPTRVIVVWFSNARQKARK [Q48S]	-0.161 ± 0.12
SSRTRFTDYQLRVLQDFFDTNAYPKDDEIEQLSTVLNVPTRVIVVWFQNARQKARK [L38V]	-0.051 ± 0.085
SSRTRFTDYQLRVLQDFFDTNAYPKDDEIEQLSTVLNKPTRVIVVWFQNARQKARK [L38K]	-0.357 ± 0.13
SSRTRFTDYQLLVLQDFFDTNAYPKDDEIEQLSTVLNLPTRVIVVWFQNARQKARK [R12L]	-0.309 ± 0.08
SSRTRFTDYQLFVLQDFFDTNAYPKDDEIEQLSTVLNLPTRVIVVWFQNARQKARK [R12F]	-0.81 ± 0.16
SSRTRFTDYQLVVLQDFFDTNAYPKDDEIEQLSTVLNLPTRVIVVWFQNARQKARK [R12V]	-0.544 ± 0.1
SSRTRFTDYQLSVLQDFFDTNAYPKDDEIEQLSTVLNLPTRVIVVWFQNARQKARK [R12S]	-0.203 ± 0.089

Variant	abundance fitness
SSRTRFTDYQLHVLQDFFDTNAYPKDDEIEQLSTVLNLPTRVIVVWFQNARQKARK [R12H]	-0.166 ± 0.15
SSRTRFTDYQLRVLQDFFDTNAYPKDDEIEQLSTVLNLPTRVIVVWFQNARQKAHK [R55H]	0.187 ± 0.18
SSRTRFTDYQLRVLQDFFDTNAYPKDDEIEQLSTVLNLPTRVIVVWFQNARQKAWK [R55W]	-0.286 ± 0.14
SSRTRFTDYQLRVLQDFFDTNAYPKDDEIEQLSTVLNLPTRVIVVWDQNARQKARK [F47D]	-0.4 ± 0.24
SSRTRFTDYQLRVLQDFFDTNAYPKDDEIEQLSTVLNLPTRVIVVWMQNARQKARK [F47M]	-0.334 ± 0.15
SSRTRFTDYQLRVLQDFFDTNADPKDDEIEQLSTVLNLPTRVIVVWFQNARQKARK [Y23D]	0.313 ± 0.15
SSRTRFTDYQLRVLQDFFDTNARPKDDEIEQLSTVLNLPTRVIVVWFQNARQKARK [Y23R]	0.047 ± 0.074
SSRTRFTDYQLRVLQDFFDTNAWPKDDEIEQLSTVLNLPTRVIVVWFQNARQKARK [Y23W]	-0.061 ± 0.099
SSRTRFTDYQLRVLQDFFDTNAYPKDDEIEQLSTVLNLPTRVIVVWFQNAREKARK [Q52E]	0.068 ± 0.32
SSRTRFTDYQLRVLQDFFDTNAYPKDDEIEQLSTVLNLPTRVIVVWFQNARHKARK [Q52H]	-0.015 ± 0.23
SSRTRFTDYQLRVLQDFFDTNAYPKDDFIEQLSTVLNLPTRVIVVWFQNARQKARK [E28F]	-0.448 ± 0.15
SSRTRFTDYQLRVLQDFFDTNAYPKDDHIEQLSTVLNLPTRVIVVWFQNARQKARK [E28H]	-0.188 ± 0.16
SSRTRFTDYQLRVLQDFFDTNAYPKDDWIEQLSTVLNLPTRVIVVWFQNARQKARK [E28W]	-0.596 ± 0.11
SSRTRFTDYQLRVLQDFFDTNAYPKDDEIEQLSTVLNLPTRVIVVWFQHARQKARK [N49H]	-0.077 ± 0.14
SSRTRFTDYQLRVLQDFFDTNAYPKDDEIEQLCTVLNLPTRVIVVWFQNARQKARK [S33C]	-0.357 ± 0.19
SSRTRFTDYQLRVLQDFFDTNAYPKDDEIEQLYTVLNLPTRVIVVWFQNARQKARK [S33Y]	-0.749 ± 0.23
SSRTRFTDYQLRVLQDFFDTNAYPKDDEIEQLFTVLNLPTRVIVVWFQNARQKARK [S33F]	-0.897 ± 0.19
SSRTRFTDYQLRVLQDFFDTNAYPKDDEIEQLSTVLNLPTRVIVVWFQNARQKTRK [A54T]	-0.1 ± 0.097
SSRTRFTDYQLRVLQDFFDTNAYPKDDEIEQLSTVLNLPTRVIVVMFQNARQKARK [W46M]	-0.864 ± 0.3
SSRTRFTDYQLRVLQDFFDTNAYPKDDEIEQLSTVLNLPTPVIVVWFQNARQKARK [R41P]	-0.143 ± 0.13
SSRTRFTDYQLRVLQDFFDTNAYPKDDEIEQLSTVLNLPTMVIVVWFQNARQKARK [R41M]	-0.081 ± 0.13
SSRTRFTDYQLRVLQDFFDTNAYPKDDEIEQLSTVLNLPTAVIVVWFQNARQKARK [R41A]	0.069 ± 0.11
SSRTRFTDYQLRVLQDFFDTNAYPKDDEIEQLSTVLWLPTRVIVVWFQNARQKARK [N37W]	-0.569 ± 0.11
